Experimental data as given in doi:10.1101/2023.02.27.530350 (bioRxiv, 2023).
Where two headings read alike, the source gives them in different places.

T1: WalK-LgBIT (native WalK, sensor histidine kinase) (Staphylococcus aureus, UniProt Q2FKN7 1-608)
T1 sequence (looked up): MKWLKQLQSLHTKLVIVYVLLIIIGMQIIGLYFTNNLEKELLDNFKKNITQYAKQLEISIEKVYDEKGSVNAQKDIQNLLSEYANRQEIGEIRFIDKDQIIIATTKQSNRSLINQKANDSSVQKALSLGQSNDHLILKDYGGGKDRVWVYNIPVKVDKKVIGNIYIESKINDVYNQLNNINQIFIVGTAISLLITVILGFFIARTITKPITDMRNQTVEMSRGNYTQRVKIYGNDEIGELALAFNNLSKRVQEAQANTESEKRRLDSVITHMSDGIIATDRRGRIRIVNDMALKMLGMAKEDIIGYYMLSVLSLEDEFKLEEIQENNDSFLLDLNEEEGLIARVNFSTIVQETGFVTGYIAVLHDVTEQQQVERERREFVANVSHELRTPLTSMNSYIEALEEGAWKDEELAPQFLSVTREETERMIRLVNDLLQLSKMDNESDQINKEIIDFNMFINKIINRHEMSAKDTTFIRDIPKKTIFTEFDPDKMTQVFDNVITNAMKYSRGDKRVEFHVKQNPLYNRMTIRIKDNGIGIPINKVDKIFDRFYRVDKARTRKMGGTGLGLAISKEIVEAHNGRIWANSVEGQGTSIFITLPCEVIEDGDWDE

T2: VraR (Staphylococcus aureus, UniProt Q2FX09 1-209)
T2 sequence: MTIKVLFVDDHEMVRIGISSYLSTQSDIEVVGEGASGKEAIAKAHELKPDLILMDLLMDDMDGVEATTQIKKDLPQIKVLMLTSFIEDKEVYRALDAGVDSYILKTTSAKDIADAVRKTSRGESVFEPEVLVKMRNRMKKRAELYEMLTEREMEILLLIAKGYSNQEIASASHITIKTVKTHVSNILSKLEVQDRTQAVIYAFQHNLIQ


What was measured:
[1] = biological target: T3, WalR (Staphylococcus aureus, UniProt Q2FKN8 1-233); assay: EMSA
T3 sequence (Q2FKN8 whole entry): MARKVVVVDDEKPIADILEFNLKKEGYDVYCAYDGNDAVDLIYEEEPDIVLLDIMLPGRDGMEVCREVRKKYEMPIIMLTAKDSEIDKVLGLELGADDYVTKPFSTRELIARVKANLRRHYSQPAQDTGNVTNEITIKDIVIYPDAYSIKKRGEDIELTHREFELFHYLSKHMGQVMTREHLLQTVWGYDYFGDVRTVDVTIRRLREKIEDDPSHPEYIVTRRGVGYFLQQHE

[2] = biological target: T3, WalR; assay: EMSA; remark: listed apart in the source
[3] = biological target: T1, WalK-LgBIT (native WalK, sensor …); assay: split reporter
[4] = biological target: T2, VraR; assay: EMSA
[5] = biological target: T2, VraR; assay: EMSA; remark: listed apart in the source
[6] = biological target: T3, WalR; assay: EMSA; remark: listed apart in the source

Binder	binding result [1]	further results
SAUSA300_0602 promoter EMSA probe (dsDNA) DNA 1: GAAATATAAAAGTAGTAATTATTATTTGTAATATAATTGTAATATGACTGTTGTTTTAGAAATGATTGTT DNA 2: AACAATCATTTCTAAAACAACAGTCATATTACAATTATATTACAAATAATAATTACTACTTTTATATTTC	binds	–
sle1 promoter EMSA probe (dsDNA) DNA 1: TTTGATGATACAGTATATGATTTTTTTGTAATCATAATGTCATCAAACATCAACCTATTATACATAATAA DNA 2: TTATTATGTATAATAGGTTGATGTTTGATGACATTATGATTACAAAAAAATCATATACTGTATCATCAAA	binds	–
ssaA promoter EMSA probe (dsDNA) DNA 1: AAAACTGAATGTTTCGAAAATAAGTCTGTTACAAATTTGTAATATTACTGAAAATTCTAAATGTATATTT DNA 2: AAATATACATTTAGAATTTTCAGTAATATTACAAATTTGTAACAGACTTATTTTCGAAACATTCAGTTTT	–	binding result [2]: binds
WalR_(T101A)-SmBIT (natural protein, Staphylococcus aureus, UniProt Q2FKN8 1-233, looked up) MARKVVVVDDEKPIADILEFNLKKEGYDVYCAYDGNDAVDLIYEEEPDIVLLDIMLPGRDGMEVCREVRKKYEMPIIMLTAKDSEIDKVLGLELGADDYVAKPFSTRELIARVKANLRRHYSQPAQDTGNVTNEITIKDIVIYPDAYSIKKRGEDIELTHREFELFHYLSKHMGQVMTREHLLQTVWGYDYFGDVRTVDVTIRRLREKIEDDPSHPEYIVTRRGVGYFLQQHE	–	fold change of the maximal level of interaction against native WalK/WalR [3]: 1.5 fold
ltaS promoter EMSA probe (WalR site) (dsDNA) DNA 1: ATATTTATTAATTGAGCTATGCTTATTATTACAATTTGATTACAAATTTTAAATTTGTTAATTGAATGAT DNA 2: ATCATTCAATTAACAAATTTAAAATTTGTAATCAAATTGTAATAATAAGCATAGCTCAATTAATAAATAT	binds	binding result [4]: binds
ltaS promoter EMSA probe (VraR site) (dsDNA) DNA 1: CATTAGGAGGAAATTATTTGCATCGGACTCGAGTATGAGCTACGTACCAAATATTATTTCATCATTTCTA DNA 2: TAGAAATGATGAAATAATATTTGGTACGTAGCTCATACTCGAGTCCGATGCAAATAATTTCCTCCTAATG	–	binding result [5]: binds; binding result [6]: no binding
sasD promoter EMSA probe (dsDNA) DNA 1: CTTTTGTAATCGTATGATAATGTAAATGTAATCAAATTGTAATATAAGGGGACAAGACAATGAAAAAATT DNA 2: AATTTTTTCATTGTCTTGTCCCCTTATATTACAATTTGATTACATTTACATTATCATACGATTACAAAAG	binds	–
isaA promoter EMSA probe (dsDNA) DNA 1: AAATAACACTTGATATTGTAATGTTTTGTAAAGAAAGTGTAATTTACTGGCTGGTTTTTTGTGATATAGT DNA 2: ACTATATCACAAAAAACCAGCCAGTAAATTACACTTTCTTTACAAAACATTACAATATCAAGTGTTATTT	binds	–
